This passage reports abundance fitness results from the Human Domainome abundance scans (Beltran et al. 2025).

B1: Peroxisome proliferator-activated receptor delta, residues 71 to 145; numbered along this chain, Q03181 (parent)
chain: NMECRVCGDKASGFHYGVHACEGCKGFFRRTIRMKLEYEKCERSCKIQKKNRNKCQYCRFQKCLALGMSHNAIRF

± gives the uncertainty stated by the source.

In this data set the parent is B1. The data set is described as follows: abundance fitness (aPCA) (normalised: wild type 0, dead -1); higher = more abundant; growth selection in yeast, the domain comes from the species named. As to conditions: Homo sapiens.
With NMECRVCGDKASGFHYGVHACEGCKGFFRRTIRMKLEYEKCERSCKIQHKNRNKCQYCRFQKCLALGMSHNAIRF [K49H], the abundance fitness came to 0.602 ± 0.38.

Turning to NMECDVCGDKASGFHYGVHACEGCKGFFRRTIRMKLEYEKCERSCKIQKKNRNKCQYCRFQKCLALGMSHNAIRF [R5D], the abundance fitness is 0.032 ± 0.05.

For NMECRVCGDDASGFHYGVHACEGCKGFFRRTIRMKLEYEKCERSCKIQKKNRNKCQYCRFQKCLALGMSHNAIRF [K10D], the abundance fitness was -0.01 ± 0.059.

As for NMECRVCGDAASGFHYGVHACEGCKGFFRRTIRMKLEYEKCERSCKIQKKNRNKCQYCRFQKCLALGMSHNAIRF [K10A], the abundance fitness is -0.002 ± 0.041.

As to NMECRVCGDKASGFHYGVHACEGCKGFFRRTIRMKLEYEKCERSCKIQKKNRNKCQYCRFQKCLALGPSHNAIRF [M68P], the abundance fitness was -0.64 ± 0.11.

As for NMECRVCGDKASGFHYGVHACEGCKGFFRRTIRMKLEYEKCERSCKIQKKNRNKCQYCRFQKCLALGMLHNAIRF [S69L], the abundance fitness was -0.053 ± 0.047.

Regarding NMECRVCGDKASGFHYGVHACEGCKGFFRRTIRMKLEYEKCERSCKIQKKNRNKCQYCRFQKCLALYMSHNAIRF [G67Y], the abundance fitness was -0.854 ± 0.23.

As to NMECRVCGDKASGFHYGVHACEGCKGFFRRTIRMKLEYEKCERSCKIQKKNRNKCQYCRFQKCLALPMSHNAIRF [G67P], the abundance fitness is -0.562 ± 0.13.

In the case of NMECRVCGDKASGFHYGVCACEGCKGFFRRTIRMKLEYEKCERSCKIQKKNRNKCQYCRFQKCLALGMSHNAIRF [H19C], the abundance fitness worked out at 0.014 ± 0.058.

Turning to NMECRVCGDKASGFHYGVHACEGCKGFFRRTIRMKLEYEKHERSCKIQKKNRNKCQYCRFQKCLALGMSHNAIRF [C41H], the abundance fitness is -0.361 ± 0.24.

On to NMECRVCGDKASGFHYGVHACEGCKGFFRRTIRMKLEYEKLERSCKIQKKNRNKCQYCRFQKCLALGMSHNAIRF [C41L], for which the abundance fitness was -1.27 ± 0.34.

For NMECRVCGDKASGFHYGVHACEGCKGFFRRTIRMKLEYEKEERSCKIQKKNRNKCQYCRFQKCLALGMSHNAIRF [C41E], the abundance fitness was -0.729 ± 0.19.

In the case of NMECRVCGDKASGFHYGVHACEFCKGFFRRTIRMKLEYEKCERSCKIQKKNRNKCQYCRFQKCLALGMSHNAIRF [G23F], the abundance fitness was -0.001 ± 0.084.

Turning to NMECRVCGDKASGFHYGVHACESCKGFFRRTIRMKLEYEKCERSCKIQKKNRNKCQYCRFQKCLALGMSHNAIRF [G23S], the abundance fitness came to 0.146 ± 0.034.

Turning to NMECRVCGDKASGFHYGVHACEQCKGFFRRTIRMKLEYEKCERSCKIQKKNRNKCQYCRFQKCLALGMSHNAIRF [G23Q], the abundance fitness was -0.009 ± 0.049.

With NMECRVCGDKASGFHYGVHACEGCKGFFRRTIRMKLEYEKCERSCKIQKKNRMKCQYCRFQKCLALGMSHNAIRF [N53M], the abundance fitness was -0.067 ± 0.052.

Take NMEIRVCGDKASGFHYGVHACEGCKGFFRRTIRMKLEYEKCERSCKIQKKNRNKCQYCRFQKCLALGMSHNAIRF [C4I]: the abundance fitness was -1.14 ± 0.4.

For NMECRVCGDKASGFHYGVHACEGCKGFFRRTIRMKLEYEKCERSCKIQKKNRNKCQYCRFFKCLALGMSHNAIRF [Q61F], the abundance fitness was -0.909 ± 0.3.

In the case of NMECRVCGDKASGFHYTVHACEGCKGFFRRTIRMKLEYEKCERSCKIQKKNRNKCQYCRFQKCLALGMSHNAIRF [G17T], the abundance fitness is -0.567 ± 0.077.

Take NMECRVCGDKASGFHYGVHACEGCKGFFRRTIRMKLEYEKCERSCKIQKKNRNQCQYCRFQKCLALGMSHNAIRF [K54Q]: the abundance fitness is -0.012 ± 0.048.

For NMECRVCGDKASGFHYGVHACEGCKGFFRRTIRMKLEYEKCERSCKIQKKNRNKCQYCRFQKILALGMSHNAIRF [C63I], the abundance fitness is -0.669 ± 0.17.

In the case of NMECRVCGDKASGFHYGVHACEGCKGFFRRTIRMKLEYEKCERSCKIQKKNRNKCQYCRFQKLLALGMSHNAIRF [C63L], the abundance fitness is -0.547 ± 0.062.

Consider NMECRVCGDKASGFHYGVHACEGCKGFFRRTIRMKLEYEKCERSCKIQKLNRNKCQYCRFQKCLALGMSHNAIRF [K50L], for which the abundance fitness is -0.069 ± 0.042.

Consider NMECRVCGDKASGFHYGVHACEGCKGFFRRTIRMKLEYEKCERSCKIQKWNRNKCQYCRFQKCLALGMSHNAIRF [K50W], for which the abundance fitness is -0.056 ± 0.042.

Regarding NMECRVCGDKASMFHYGVHACEGCKGFFRRTIRMKLEYEKCERSCKIQKKNRNKCQYCRFQKCLALGMSHNAIRF [G13M], the abundance fitness was -0.431 ± 0.079.

As to NMECRVCGDKASGFHYGVHACEGCKGFFRRTIRMKLEYEKCERSCKIQKKFRNKCQYCRFQKCLALGMSHNAIRF [N51F], the abundance fitness is -0.028 ± 0.12.

Consider NMECRVCGDKASGMHYGVHACEGCKGFFRRTIRMKLEYEKCERSCKIQKKNRNKCQYCRFQKCLALGMSHNAIRF [F14M], for which the abundance fitness was -0.059 ± 0.053.

Regarding NMECRVCGDKALGFHYGVHACEGCKGFFRRTIRMKLEYEKCERSCKIQKKNRNKCQYCRFQKCLALGMSHNAIRF [S12L], the abundance fitness is -0.395 ± 0.059.

Take NMECRVCGDKAWGFHYGVHACEGCKGFFRRTIRMKLEYEKCERSCKIQKKNRNKCQYCRFQKCLALGMSHNAIRF [S12W]: the abundance fitness was -0.579 ± 0.079.

As for NMECRVCGDKASGFAYGVHACEGCKGFFRRTIRMKLEYEKCERSCKIQKKNRNKCQYCRFQKCLALGMSHNAIRF [H15A], the abundance fitness was -0.116 ± 0.042.

For the variant NMECRVCGDKASGFYYGVHACEGCKGFFRRTIRMKLEYEKCERSCKIQKKNRNKCQYCRFQKCLALGMSHNAIRF [H15Y], the abundance fitness was -0.088 ± 0.061.

With NMECRVCGDKASGFHTGVHACEGCKGFFRRTIRMKLEYEKCERSCKIQKKNRNKCQYCRFQKCLALGMSHNAIRF [Y16T], the abundance fitness is -0.32 ± 0.059.

With NMECRVCGDKASGFHKGVHACEGCKGFFRRTIRMKLEYEKCERSCKIQKKNRNKCQYCRFQKCLALGMSHNAIRF [Y16K], the abundance fitness was -0.356 ± 0.086.

NMECRVCGDKASGFHYGNHACEGCKGFFRRTIRMKLEYEKCERSCKIQKKNRNKCQYCRFQKCLALGMSHNAIRF [V18N]: the abundance fitness was -0.372 ± 0.14.

Consider NMECRVCGDKASGFHYGVHACEGCKGFFRRTIRMKLEYEKCERSCKIQKKNRNKCQYQRFQKCLALGMSHNAIRF [C58Q], for which the abundance fitness was -0.848 ± 0.17.

As for NVECRVCGDKASGFHYGVHACEGCKGFFRRTIRMKLEYEKCERSCKIQKKNRNKCQYCRFQKCLALGMSHNAIRF [M2V], the abundance fitness is -0.155 ± 0.051.
